The assay deals with PD-1 antigen with murine Fc tags (human) (UniProt Q15116). The assay is described as follows: SPR (Biacore T200), PD-1-mFc captured by anti-mouse Fc antibody, 100 nM antibody injected. Background: SPR reads the build-up and loss of mass on a sensor chip optically.

Among the data in patent EP4717714A1 are Bound antibody signal (RU) values, retold here.

PD-1 antigen with murine Fc tags (human), sequence (Q15116 25-167 limits assumed): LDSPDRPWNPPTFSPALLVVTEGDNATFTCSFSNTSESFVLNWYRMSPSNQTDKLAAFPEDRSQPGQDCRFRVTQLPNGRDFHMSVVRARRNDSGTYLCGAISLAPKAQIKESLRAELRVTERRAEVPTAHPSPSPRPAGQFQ

B1: JS001 (recombinant humanized anti-PD-1 monoclonal antibody reference article, Toripalimab) (antibody, human IgG4 S228P, kappa, V domains shown)
VH: QGQLVQSGAEVKKPGASVKVSCKASGYTFTDYEMHWVRQAPIHGLEWIGVIESETGGTAYNQKFKGRVTITADKSTSTAYMELSSLRSEDTAVYYCAREGITTVATTYYWYFDVWGQGTTVTVSS
VL: DVVMTQSPLSLPVTLGQPASISCRSSQSIVHSNGNTYLEWYLQKPGQSPQLLIYKVSNRFSGVPDRFSGSGSGTDFTLKISRVEAEDVGVYYCFQGSHVPLTFGQGTKLEIKR
B1: the Bound antibody signal (RU) turned out to be 128 RU.
